The values below come from the supplement of paper PMC11908140.

Sequences and labels used below:
B1: library; numbered along this chain (parent)
chain: MRKPRAAVGSGHRKQAASQEGRQKHAKNNSQAKPSACDGLARQPEEVVLQASVSSYHLFRDVAEVTAFRGSLLSWYDQEKRDLPWRRRAEDEMDLDRRAYAVWVSEVMLQQTQVATVINYYTGWMQKWPTLQDLASASLEEVNQLWAGLGYYSRGRRLQEGARKVVEELGGHMPRTAETLQQLLPGVGRYTAGAIASIAFGQATGVVDGNVARVLCRVRAIGADPSSTLVSQQLWGLAQQLVDPARPGDFNQAAMELGATVCTPQRPLCSQCPVESLCRARQRVEQEQLLASGSLSGSPDVEECAPNTGQCHLCLPPSEPWDQTLGVVNFPRKASRKPPREESSATCVLEQPGALGAQILLVQRPNSGLLAGLWEFPSVTWEPSEQLQRKALLQELQRWAGPLPATHLRHLGEVVHTFSHIKLTYQVYGLALEGQTPVTTVPPGARWLTQEEFHTAAVSTAMKKVFRVYQGQQPGTCMGSKRSQVSSPCSRKKPRMGQQVLDNFFRSHISTDAHSLNSAAQ

Variants of B1 are the subject of the series. As to the kind of experiment: 8OG:A repair function score (normalized; synonymous = 0, nonsense = -1) (normalized log-likelihood score); higher = more repair activity (WT-like). Conditions: with 8OG:A DNA repair reporter (GFP) in HEK-293 MUTYH KO cells. The method, then: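 Saturation mutagenesis (NNN codon scan) of the MUTYH cDNA (521-aa nuclear isoform NM_001048174.1 / NP_001041639), stably expressed under doxycycline induction in HEK-293 MUTYH knockout cells. Cells were co-transfected with an 8OG:A-bearing GFP repair reporter plus mCherry and sorted 72 h later into GFP+ and GFP− bins, three replicates per tile. The Rosace log2 enrichment (GFP+ vs GFP−) was converted per tile to a normalized function score with synonymous variants centered at 0 and nonsense variants (codons 1-471) at -1; low-abundance variants were removed.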
As to MRKPRAAVGSGHRKQAASQEGRQKHAKNNSQAKPSACDGLARQPEEVVLQASVSSYHLFRDVAEVTAFRGSLLSWYDQEKRDLPWRRRAEDEMDLDRRAYAVWVSEVMLQQTQVATVINYYTGWMQKWPTLQDLASASLEEVNQLWAGLGYISRGRRLQEGARKVVEELGGHMPRTAETLQQLLPGVGRYTAGAIASIAFGQATGVVDGNVARVLCRVRAIGADPSSTLVSQQLWGLAQQLVDPARPGDFNQAAMELGATVCTPQRPLCSQCPVESLCRARQRVEQEQLLASGSLSGSPDVEECAPNTGQCHLCLPPSEPWDQTLGVVNFPRKASRKPPREESSATCVLEQPGALGAQILLVQRPNSGLLAGLWEFPSVTWEPSEQLQRKALLQELQRWAGPLPATHLRHLGEVVHTFSHIKLTYQVYGLALEGQTPVTTVPPGARWLTQEEFHTAAVSTAMKKVFRVYQGQQPGTCMGSKRSQVSSPCSRKKPRMGQQVLDNFFRSHISTDAHSLNSAAQ [Y152I], the “8OG:A repair function score” value is -0.496. Under MRKPRAAVGSGHRKQAASQEGRQKHAKNNSQAKPSACDGLARQPEEVVLQASVSSYHLFRDVAEVTAFRGSLLSWYDQEKRDLPWRRRAEDEMDLDRRAYAVWVSEVMLQQTQVATVINYYTGWMQKWPTLQDLASASLEEVNQLWAGLGYFSRGRRLQEGARKVVEELGGHMPRTAETLQQLLPGVGRYTAGAIASIAFGQATGVVDGNVARVLCRVRAIGADPSSTLVSQQLWGLAQQLVDPARPGDFNQAAMELGATVCTPQRPLCSQCPVESLCRARQRVEQEQLLASGSLSGSPDVEECAPNTGQCHLCLPPSEPWDQTLGVVNFPRKASRKPPREESSATCVLEQPGALGAQILLVQRPNSGLLAGLWEFPSVTWEPSEQLQRKALLQELQRWAGPLPATHLRHLGEVVHTFSHIKLTYQVYGLALEGQTPVTTVPPGARWLTQEEFHTAAVSTAMKKVFRVYQGQQPGTCMGSKRSQVSSPCSRKKPRMGQQVLDNFFRSHISTDAHSLNSAAQ [Y152F] stands -0.371. As for MRKPRAAVGSGHRKQAASQEGRQKHAKNNSQAKPSACDGLARQPEEVVLQASVSSYHLFRDVAEVTAFRGSLLSWYDQEKRDLPWRRRAEDEMDLDRRAYAVWVSEVMLQQTQVATVINYYTGWMQKWPTLQDLASASLEEVNQLWAGLGYESRGRRLQEGARKVVEELGGHMPRTAETLQQLLPGVGRYTAGAIASIAFGQATGVVDGNVARVLCRVRAIGADPSSTLVSQQLWGLAQQLVDPARPGDFNQAAMELGATVCTPQRPLCSQCPVESLCRARQRVEQEQLLASGSLSGSPDVEECAPNTGQCHLCLPPSEPWDQTLGVVNFPRKASRKPPREESSATCVLEQPGALGAQILLVQRPNSGLLAGLWEFPSVTWEPSEQLQRKALLQELQRWAGPLPATHLRHLGEVVHTFSHIKLTYQVYGLALEGQTPVTTVPPGARWLTQEEFHTAAVSTAMKKVFRVYQGQQPGTCMGSKRSQVSSPCSRKKPRMGQQVLDNFFRSHISTDAHSLNSAAQ [Y152E], the “8OG:A repair function score” value is -1.16. Under MRKPRAAVGSGHRKQAASQEGRQKHAKNNSQAKPSACDGLARQPEEVVLQASVSSYHLFRDVAEVTAFRGSLLSWYDQEKRDLPWRRRAEDEMDLDRRAYAVWVSEVMLQQTQVATVINYYTGWMQKWPTLQDLASASLEEVNQLWAGLGYKSRGRRLQEGARKVVEELGGHMPRTAETLQQLLPGVGRYTAGAIASIAFGQATGVVDGNVARVLCRVRAIGADPSSTLVSQQLWGLAQQLVDPARPGDFNQAAMELGATVCTPQRPLCSQCPVESLCRARQRVEQEQLLASGSLSGSPDVEECAPNTGQCHLCLPPSEPWDQTLGVVNFPRKASRKPPREESSATCVLEQPGALGAQILLVQRPNSGLLAGLWEFPSVTWEPSEQLQRKALLQELQRWAGPLPATHLRHLGEVVHTFSHIKLTYQVYGLALEGQTPVTTVPPGARWLTQEEFHTAAVSTAMKKVFRVYQGQQPGTCMGSKRSQVSSPCSRKKPRMGQQVLDNFFRSHISTDAHSLNSAAQ [Y152K] stands -1.07. Under MRKPRAAVGSGHRKQAASQEGRQKHAKNNSQAKPSACDGLARQPEEVVLQASVSSYHLFRDVAEVTAFRGSLLSWYDQEKRDLPWRRRAEDEMDLDRRAYAVWVSEVMLQQTQVATVINYYTGWMQKWPTLQDLASASLEEVNQLWAGLGYGSRGRRLQEGARKVVEELGGHMPRTAETLQQLLPGVGRYTAGAIASIAFGQATGVVDGNVARVLCRVRAIGADPSSTLVSQQLWGLAQQLVDPARPGDFNQAAMELGATVCTPQRPLCSQCPVESLCRARQRVEQEQLLASGSLSGSPDVEECAPNTGQCHLCLPPSEPWDQTLGVVNFPRKASRKPPREESSATCVLEQPGALGAQILLVQRPNSGLLAGLWEFPSVTWEPSEQLQRKALLQELQRWAGPLPATHLRHLGEVVHTFSHIKLTYQVYGLALEGQTPVTTVPPGARWLTQEEFHTAAVSTAMKKVFRVYQGQQPGTCMGSKRSQVSSPCSRKKPRMGQQVLDNFFRSHISTDAHSLNSAAQ [Y152G] stands -0.713. With MRKPRAAVGSGHRKQAASQEGRQKHAKNNSQAKPSACDGLARQPEEVVLQASVSSYHLFRDVAEVTAFRGSLLSWYDQEKRDLPWRRRAEDEMDLDRRAYAVWVSEVMLQQTQVATVINYYTGWMQKWPTLQDLASASLEEVNQLWAGLGYMSRGRRLQEGARKVVEELGGHMPRTAETLQQLLPGVGRYTAGAIASIAFGQATGVVDGNVARVLCRVRAIGADPSSTLVSQQLWGLAQQLVDPARPGDFNQAAMELGATVCTPQRPLCSQCPVESLCRARQRVEQEQLLASGSLSGSPDVEECAPNTGQCHLCLPPSEPWDQTLGVVNFPRKASRKPPREESSATCVLEQPGALGAQILLVQRPNSGLLAGLWEFPSVTWEPSEQLQRKALLQELQRWAGPLPATHLRHLGEVVHTFSHIKLTYQVYGLALEGQTPVTTVPPGARWLTQEEFHTAAVSTAMKKVFRVYQGQQPGTCMGSKRSQVSSPCSRKKPRMGQQVLDNFFRSHISTDAHSLNSAAQ [Y152M] the figure was -0.3. MRKPRAAVGSGHRKQAASQEGRQKHAKNNSQAKPSACDGLARQPEEVVLQASVSSYHLFRDVAEVTAFRGSLLSWYDQEKRDLPWRRRAEDEMDLDRRAYAVWVSEVMLQQTQVATVINYYTGWMQKWPTLQDLASASLEEVNQLWAGLGYLSRGRRLQEGARKVVEELGGHMPRTAETLQQLLPGVGRYTAGAIASIAFGQATGVVDGNVARVLCRVRAIGADPSSTLVSQQLWGLAQQLVDPARPGDFNQAAMELGATVCTPQRPLCSQCPVESLCRARQRVEQEQLLASGSLSGSPDVEECAPNTGQCHLCLPPSEPWDQTLGVVNFPRKASRKPPREESSATCVLEQPGALGAQILLVQRPNSGLLAGLWEFPSVTWEPSEQLQRKALLQELQRWAGPLPATHLRHLGEVVHTFSHIKLTYQVYGLALEGQTPVTTVPPGARWLTQEEFHTAAVSTAMKKVFRVYQGQQPGTCMGSKRSQVSSPCSRKKPRMGQQVLDNFFRSHISTDAHSLNSAAQ [Y152L]: the “8OG:A repair function score” value is -0.707. With MRKPRAAVGSGHRKQAASQEGRQKHAKNNSQAKPSACDGLARQPEEVVLQASVSSYHLFRDVAEVTAFRGSLLSWYDQEKRDLPWRRRAEDEMDLDRRAYAVWVSEVMLQQTQVATVINYYTGWMQKWPTLQDLASASLEEVNQLWAGLGYDSRGRRLQEGARKVVEELGGHMPRTAETLQQLLPGVGRYTAGAIASIAFGQATGVVDGNVARVLCRVRAIGADPSSTLVSQQLWGLAQQLVDPARPGDFNQAAMELGATVCTPQRPLCSQCPVESLCRARQRVEQEQLLASGSLSGSPDVEECAPNTGQCHLCLPPSEPWDQTLGVVNFPRKASRKPPREESSATCVLEQPGALGAQILLVQRPNSGLLAGLWEFPSVTWEPSEQLQRKALLQELQRWAGPLPATHLRHLGEVVHTFSHIKLTYQVYGLALEGQTPVTTVPPGARWLTQEEFHTAAVSTAMKKVFRVYQGQQPGTCMGSKRSQVSSPCSRKKPRMGQQVLDNFFRSHISTDAHSLNSAAQ [Y152D] the figure was -1.08; with MRKPRAAVGSGHRKQAASQEGRQKHAKNNSQAKPSACDGLARQPEEVVLQASVSSYHLFRDVAEVTAFRGSLLSWYDQEKRDLPWRRRAEDEMDLDRRAYAVWVSEVMLQQTQVATVINYYTGWMQKWPTLQDLASASLEEVNQLWAGLGYASRGRRLQEGARKVVEELGGHMPRTAETLQQLLPGVGRYTAGAIASIAFGQATGVVDGNVARVLCRVRAIGADPSSTLVSQQLWGLAQQLVDPARPGDFNQAAMELGATVCTPQRPLCSQCPVESLCRARQRVEQEQLLASGSLSGSPDVEECAPNTGQCHLCLPPSEPWDQTLGVVNFPRKASRKPPREESSATCVLEQPGALGAQILLVQRPNSGLLAGLWEFPSVTWEPSEQLQRKALLQELQRWAGPLPATHLRHLGEVVHTFSHIKLTYQVYGLALEGQTPVTTVPPGARWLTQEEFHTAAVSTAMKKVFRVYQGQQPGTCMGSKRSQVSSPCSRKKPRMGQQVLDNFFRSHISTDAHSLNSAAQ [Y152A], -0.881. Under MRKPRAAVGSGHRKQAASQEGRQKHAKNNSQAKPSACDGLARQPEEVVLQASVSSYHLFRDVAEVTAFRGSLLSWYDQEKRDLPWRRRAEDEMDLDRRAYAVWVSEVMLQQTQVATVINYYTGWMQKWPTLQDLASASLEEVNQLWAGLGYHSRGRRLQEGARKVVEELGGHMPRTAETLQQLLPGVGRYTAGAIASIAFGQATGVVDGNVARVLCRVRAIGADPSSTLVSQQLWGLAQQLVDPARPGDFNQAAMELGATVCTPQRPLCSQCPVESLCRARQRVEQEQLLASGSLSGSPDVEECAPNTGQCHLCLPPSEPWDQTLGVVNFPRKASRKPPREESSATCVLEQPGALGAQILLVQRPNSGLLAGLWEFPSVTWEPSEQLQRKALLQELQRWAGPLPATHLRHLGEVVHTFSHIKLTYQVYGLALEGQTPVTTVPPGARWLTQEEFHTAAVSTAMKKVFRVYQGQQPGTCMGSKRSQVSSPCSRKKPRMGQQVLDNFFRSHISTDAHSLNSAAQ [Y152H] stands -0.695. With MRKPRAAVGSGHRKQAASQEGRQKHAKNNSQAKPSACDGLARQPEEVVLQASVSSYHLFRDVAEVTAFRGSLLSWYDQEKRDLPWRRRAEDEMDLDRRAYAVWVSEVMLQQTQVATVINYYTGWMQKWPTLQDLASASLEEVNQLWAGLGYCSRGRRLQEGARKVVEELGGHMPRTAETLQQLLPGVGRYTAGAIASIAFGQATGVVDGNVARVLCRVRAIGADPSSTLVSQQLWGLAQQLVDPARPGDFNQAAMELGATVCTPQRPLCSQCPVESLCRARQRVEQEQLLASGSLSGSPDVEECAPNTGQCHLCLPPSEPWDQTLGVVNFPRKASRKPPREESSATCVLEQPGALGAQILLVQRPNSGLLAGLWEFPSVTWEPSEQLQRKALLQELQRWAGPLPATHLRHLGEVVHTFSHIKLTYQVYGLALEGQTPVTTVPPGARWLTQEEFHTAAVSTAMKKVFRVYQGQQPGTCMGSKRSQVSSPCSRKKPRMGQQVLDNFFRSHISTDAHSLNSAAQ [Y152C] the figure was -0.782.

Regarding MRKPRAAVGSGHRKQAASQEGRQKHAKNNSQAKPSACDGLARQPEEVVLQASVSSYHLFRDVAEVTAFRGSLLSWYDQEKRDLPWRRRAEDEMDLDRRAYAVWVSEVMLQQTQVATVINYYTGWMQKWPTLQDLASASLEEVNQLWAGLGWYSRGRRLQEGARKVVEELGGHMPRTAETLQQLLPGVGRYTAGAIASIAFGQATGVVDGNVARVLCRVRAIGADPSSTLVSQQLWGLAQQLVDPARPGDFNQAAMELGATVCTPQRPLCSQCPVESLCRARQRVEQEQLLASGSLSGSPDVEECAPNTGQCHLCLPPSEPWDQTLGVVNFPRKASRKPPREESSATCVLEQPGALGAQILLVQRPNSGLLAGLWEFPSVTWEPSEQLQRKALLQELQRWAGPLPATHLRHLGEVVHTFSHIKLTYQVYGLALEGQTPVTTVPPGARWLTQEEFHTAAVSTAMKKVFRVYQGQQPGTCMGSKRSQVSSPCSRKKPRMGQQVLDNFFRSHISTDAHSLNSAAQ [Y151W], the “8OG:A repair function score” value is -0.534.
